Laboratory results as given in publication PMC5742583, “A Functional Analysis on the Interspecies Interaction between Mouse LFA-1 and Human Intercellular Adhesion Molecule-1 at the Cell Level” (Frontiers in Immunology, 2017).

B1: mouse ICAM-1: mouse ICAM-1, purified cell-free models of ref [29] (protein, UniProt P13597 28-537, looked up)
Intercellular adhesion …: QVSIHPREAFLPQGGSVQVNCSSSCKEDLSLGLETQWLKDELESGPNWKLFELSEIGEDSSPLCFENCGTVQSSASATITVYSFPESVELRPLPAWQQVGKDLTLRCHVDGGAPRTQLSAVLLRGEEILSRQPVGGHPKDPKEITFTVLASRGDHGANFSCRTELDLRPQGLALFSNVSEARSLRTFDLPATIPKLDTPDLLEVGTQQKLFCSLEGLFPASEARIYLELGGQMPTQESTNSSDSVSATALVEVTEEFDRTLPLRCVLELADQILETQRTLTVYNFSAPVLTLSQLEVSEGSQVTVKCEAHSGSKVVLLSGVEPRPPTPQVQFTLNASSEDHKRSFFCSAALEVAGKFLFKNQTLELHVLYGPRLDETDCLGNWTWQEGSQQTLKCQAWGNPSPKMTCRRKADGALLPIGVVKSVKQEMNGTYVCHAFSSHGNVTRNVYLTVLYHSQNNWTIIILVPVLLVIVGLVMAASYVYNRQRKIRIYKLQKAQEEAIKLKGQAPPP
B2: human D1D5Fc: human Fc chimera containing the five extracellular domains of ICAM-1, R&D systems (protein)
chain: QTSVSPSKVILPRGGSVLVTCSTSCDQPKLLGIETPLPKKELLLPGNNRKVYELSNVQEDSQPMCYSNCPDGQSTAKTFLTVYWTPERVELAPLPSWQPVGKNLTLRCQVEGGAPRANLTVVLLRGEKELKREPAVGEPAEVTTTVLVRRDHHGANFSCRTELDLRPQGLELFENTSAPYQLQTFVLPATPPQLVSPRVLEVDTQGTVVCSLDGLFPVSEAQVHLALGDQRLNPTVTYGNDSFSAKASVSVTAEDEGTQRLTCAVILGNQSQETLQTVTIYSFPAPNVILTKPEVSEGTEVTVKCEAHPRAKVTLNGVPAQPLGPRAQLLLKATPEDNGRSFSCSATLEVAGQLIHKNQTRELRVLYGPRLDERDCPGNWTWPENSQQTPMCQAWGNPLPELKCLKDGTFPLPIGESVTVTRDLEGTYLCRARSTQGEVTRKVTVNVLSPRYE
modifications: left off: Fc, end not stated, kept
notes: human Fc chimera containing the five extracellular domains of ICAM-1, R&D systems
B3: mouse D1D5Fc: mouse Fc chimera containing the five extracellular domains of ICAM-1, R&D systems (protein)
chain: QVSIHPREAFLPQGGSVQVNCSSSCKEDLSLGLETQWLKDELESGPNWKLFELSEIGEDSSPLCFENCGTVQSSASATITVYSFPESVELRPLPAWQQVGKDLTLRCHVDGGAPRTQLSAVLLRGEEILSRQPVGGHPKDPKEITFTVLASRGDHGANFSCRTELDLRPQGLALFSNVSEARSLRTFDLPATIPKLDTPDLLEVGTQQKLFCSLEGLFPASEARIYLELGGQMPTQESTNSSDSVSATALVEVTEEFDRTLPLRCVLELADQILETQRTLTVYNFSAPVLTLSQLEVSEGSQVTVKCEAHSGSKVVLLSGVEPRPPTPQVQFTLNASSEDHKRSFFCSAALEVAGKFLFKNQTLELHVLYGPRLDETDCLGNWTWQEGSQQTLKCQAWGNPSPKMTCRRKADGALLPIGVVKSVKQEMNGTYVCHAFSSHGNVTRNVYLTVLYHSQNN
modifications: left off: Fc, end not stated, kept
notes: mouse Fc chimera containing the five extracellular domains of ICAM-1, R&D systems

Legend:
human LFA-1 = conditions: purified cell-free models; ref [29]; cited from earlier work
Text: Humanized mice are widely used as in vivo models to study the molecular basis of immune-related disorders as well as the efficacy of potential drugs ([23]). In these mice, the native gene of interest is replaced by its human homolog or the immune system is eliminated and reconstituted with its human counterpart. In addition, these mice can be used to enhance the engraftment of human cancer cells allowing in vivo studies of cancer progression and treatment. Here, a major obstacle to analyze human cell function, either healthy or transformed, and disease is the lack of species cross-reactivity o ...

[1] = test system: LFA-1 in the mouse T cell line EL4; test: Binding of ICAM-1 chimeras to LFA-1 on EL4 cells by flow cytometry; format: cell-based; conditions: mouse or human D1D5Fc 0.1 and 5 µg, 4°C 45 min; representative experiment
Protocol: The ability of human D1D2Fc and mouse and human D1D5Fc to recognize LFA-1 on mouse cells was analyzed by flow cytometry in the mouse thymic lymphoma cell line EL4. EL4 cells were incubated with different concentrations of human D1D2Fc, mouse and human D1D5Fc and human IgG1 control at 4°C for 45 min, washed twice with FACS buffer (PBS, 5% FCS, 0.1% NaN3), and then incubated with PE-conjugated goat anti-human IgG (Fcγ fragment specific; Jackson ImmunoResearch). After a washing step with FACS buffer, cells were analyzed by FACS using a FACS Calibur with CellQuest Pro software (BD). As control cells were incubated with an antibody against mouse CD11a (LFA-1) before adding human D1D2Fc.
Figure 2 Analysis of D1D2Fc binding to LFA-1 in EL4 cells by flow cytometry. (A) Different amounts of D1D2Fc (0.1, 1, and 10 µg) or human IgG1 control (10 µg) were incubated with EL4 cells. After washing out non-bound proteins, cells were incubated with PE-conjugated goat anti-human IgG Fcγ Ab and analyzed by flow cytometry. As a control EL4 cells were pretreated with a mouse LFA-1 blocking antibody (anti LFA-1) before incubating with 10 µg of D1D2Fc. Histograms show a representative experiment. […] After washing out non-bound proteins, cells were incubated with PE-conjugated goat anti-human IgG Fcγ Ab and analyzed by flow cytometry. […]

mouse macrophages [2] = test: Mouse macrophage adhesion to human ICAM-1 (D1D5Fc)-coated plates; format: cell-based; conditions: plates coated with 5 µg human D1D5Fc; compared with mouse D1D5Fc; MTT
Protocol: (§1) Mouse macrophages were differentiated from mouse bone marrow as previously described ([37]). Briefly, bone marrow cells isolated from mouse femur were cultured in DMEM 10% FBS, 5% horse serum, and 30% supernatant of L929 cell culture as a source of M-CSF at a density of 10^6/cm^2 for 7–8 days. Macrophage differentiation was analyzed in the same way as human macrophages but using CD11b-APC and CD11c-PE (BD) antibodies.
(§2) Freshly isolated monocytes or differentiated macrophages were washed twice with PBS and incubated with trypsin (PAN Biotech) for 30 min at 37°C 5% CO2. After that, cells were scraped gently from the plate and resuspended at a final concentration of 10^6 cells/ml in complete RPMI medium. Subsequently, 10^5 macrophages and 5 × 10^5 monocytes were added to each well and incubated with several concentrations of human D1D2, D1D2Fc, D1D5Fc, mouse D1D5Fc, control human IgG1 20 µg or lovastatin 100 µM at 37°C 5% CO2 overnight. Next day, every well was washed twice with PBS, complete RPMI medium was added and the number or adherent remaining cells was quantified by a MTT colorimetric test ([38]). In some experiments, plates previously coated with human and mouse D1D5Fc were used. […]
(§3) Figure 7 Human intercellular adhesion molecule (ICAM)-1 blocks LFA-1-mediated mouse macrophage cell adhesion. […] (B) Macrophage phenotype was analyzed by flow cytometry testing the expression CD11b and CD11c. […]

mouse macrophages [3] = test: Mouse macrophage adhesion to mouse ICAM-1 (D1D5Fc)-coated plates; format: cell-based; conditions: plates coated with 5 µg mouse D1D5Fc; compared with human D1D5Fc; MTT
Protocol: as §1, §2, §3

[4] = test system: gp33-pulsed EL4 cells killed by mouse Tc cells (ICAM-1/LFA-1); test: CD8+ T cell-mediated cytotoxicity on EL4; format: cell-based; conditions: ICAM-1 proteins, several (increasing) amounts, preincubation 45 min 37°C, effector:target 10:1, 4 h, annexin-V/7-AAD by FACS, three experiments by duplicate

| Molecule | binding to human LFA-1 (human LFA-1) | binding to EL4 cells [1] | adhesion of mouse macrophages to coated plate (mouse macrophages [2]) | adhesion of mouse macrophages to coated plate (mouse macrophages [3]) | inhibition of Tc cell-mediated cell death of EL4 [4] | inhibition of Tc cell-mediated cell death of EL4 ([4]; listed as mouse ICAM-1 (D1D5Fc)) |
| --- | --- | --- | --- | --- | --- | --- |
| B1 | binds human LFA-1 | – | – | – | – | – |
| B2 | – | binding of human ICAM-1 was higher than binding of mouse ICAM-1 | similarly adhered | – | – | – |
| B3 | – | bound to EL4 cells | – | similarly adhered | similarly prevented cell death | inhibited cell death |
